Data reported in patent US20180038857A1.
One block for each substance: values may come before it.

What was measured:
Experiment in all cases: cell-based or functional assay
hCXCR3 (human) = hCXCR3 (human) (UniProt P49682)
hCCR9 (human) = hCCR9 (human) (UniProt P51686)
hCCR6 (human) = target: T1, hCCR6 (human) (UniProt P51684)
T1 sequence (looked up): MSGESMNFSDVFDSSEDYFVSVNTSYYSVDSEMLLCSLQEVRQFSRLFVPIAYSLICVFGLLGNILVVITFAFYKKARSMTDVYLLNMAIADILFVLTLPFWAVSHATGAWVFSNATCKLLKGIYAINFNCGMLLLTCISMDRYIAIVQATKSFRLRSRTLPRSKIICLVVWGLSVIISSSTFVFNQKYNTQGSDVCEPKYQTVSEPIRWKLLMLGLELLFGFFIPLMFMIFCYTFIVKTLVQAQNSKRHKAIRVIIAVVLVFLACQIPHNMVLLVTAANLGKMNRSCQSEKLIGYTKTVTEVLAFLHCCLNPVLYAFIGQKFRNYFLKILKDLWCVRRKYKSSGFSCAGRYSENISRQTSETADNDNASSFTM

hCCR3 (human) = hCCR3 (human) (UniProt P51677)
Chain of hCCR3 (human) (P51677 whole entry): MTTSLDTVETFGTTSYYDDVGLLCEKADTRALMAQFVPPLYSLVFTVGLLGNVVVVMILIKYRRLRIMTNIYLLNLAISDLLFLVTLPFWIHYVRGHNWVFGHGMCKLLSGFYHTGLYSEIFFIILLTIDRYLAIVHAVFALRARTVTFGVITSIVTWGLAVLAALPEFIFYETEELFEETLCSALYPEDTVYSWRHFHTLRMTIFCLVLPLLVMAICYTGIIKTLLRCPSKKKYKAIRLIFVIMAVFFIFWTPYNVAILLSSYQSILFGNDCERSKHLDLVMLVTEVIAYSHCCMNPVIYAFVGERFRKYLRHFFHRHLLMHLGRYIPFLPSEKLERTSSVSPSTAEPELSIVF

Chain of hCCR9 (human) (P51686 whole entry): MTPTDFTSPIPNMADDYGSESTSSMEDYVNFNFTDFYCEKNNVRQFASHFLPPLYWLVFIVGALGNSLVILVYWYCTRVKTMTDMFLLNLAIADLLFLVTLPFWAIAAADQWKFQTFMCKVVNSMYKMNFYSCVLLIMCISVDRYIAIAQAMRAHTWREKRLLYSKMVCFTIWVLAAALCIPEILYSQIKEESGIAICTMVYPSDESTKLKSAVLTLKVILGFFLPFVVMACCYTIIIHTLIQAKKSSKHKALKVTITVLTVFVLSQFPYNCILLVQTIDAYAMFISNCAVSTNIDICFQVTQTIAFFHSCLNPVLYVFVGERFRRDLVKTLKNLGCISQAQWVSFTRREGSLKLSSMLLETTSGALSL
Chain of recombinant native MIP-3α (P78556 27-96 limits assumed): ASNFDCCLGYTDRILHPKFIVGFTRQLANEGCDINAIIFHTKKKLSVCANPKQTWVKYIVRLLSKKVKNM
Chain of UniProt O15444 (O15444 other isoform, or with tags, fused parts or gaps limits assumed): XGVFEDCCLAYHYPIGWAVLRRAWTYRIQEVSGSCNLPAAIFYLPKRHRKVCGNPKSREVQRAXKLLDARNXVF
Chain of hCXCR3 (human) (P49682 whole entry): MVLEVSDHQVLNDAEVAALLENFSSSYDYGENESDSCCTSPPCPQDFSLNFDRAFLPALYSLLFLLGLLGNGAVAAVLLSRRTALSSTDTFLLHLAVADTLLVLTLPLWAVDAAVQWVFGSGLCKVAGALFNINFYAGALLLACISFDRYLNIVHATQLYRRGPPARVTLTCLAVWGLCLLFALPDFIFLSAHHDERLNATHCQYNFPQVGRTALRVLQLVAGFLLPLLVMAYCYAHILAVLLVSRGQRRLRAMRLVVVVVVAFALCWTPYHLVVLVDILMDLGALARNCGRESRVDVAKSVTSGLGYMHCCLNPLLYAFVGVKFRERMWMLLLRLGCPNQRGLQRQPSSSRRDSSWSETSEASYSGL

Substance: recombinant native IP-10 (from UniProt P02778 22-98) (ligand)
EC50, agonist activity in an Aequorin assay (hCXCR3 (human)): 4.4 nM

Substance: recombinant native eotaxin (from UniProt P51671 24-97) (ligand)
EC50, activity in an Aequorin assay (agonist) (hCCR3 (human)): 10.7 nM

Further lines, results first:

EC50, agonist activity in an Aequorin assay (hCCR9 (human)): 63.6 nM
Substance: biotinTECK(Met to Nleu substitution) (CCL25): TECK derivatised at the ε-amino side chain functionality of Lys72 with PEG-Biotin (from UniProt O15444 25-97) (ligand)

EC50, agonist activity in an Aequorin assay (hCCR6 (human)): 1 nM
Substance: recombinant native MIP-3α (from UniProt P78556 27-96) (ligand)

EC50, agonist activity in an Aequorin assay (hCCR9 (human)): 67.9 nM
Substance: recombinant native TECK (from UniProt O15444 24-150) (ligand)
